This is an account of results in paper PMC7758071, “Calcium depletion challenges endoplasmic reticulum proteostasis by destabilising BiP-substrate complexes” (eLife, 2020).

“And” between values parts separate entries of the source, which are not always exact repeats. Identical values can stand only once. Ends that are not written are not given here. * marks the point of attachment. Biotin = O=C1N[C@H]2[C@H](CS[C@H]2CCCCC(=O)*)N1

The target in data set [1] is T1, BiP from Drosophila melanogaster (UK2354) (Drosophila melanogaster, UniProt P29844 19-656).
T1 construct: BiP homologue of Drosophila melanogaster; the ER signal peptide is probably absent from the bacterial construct; also called dBiP; Drosophila BiP; source: E. coli BL21 T7 Express lysY/Iq, purified (Ni-NTA, Ulp1 cleavage, anion exchange); not shown: His6-Smt3, N-terminal, cleaved
T1 sequence (P29844 19-656): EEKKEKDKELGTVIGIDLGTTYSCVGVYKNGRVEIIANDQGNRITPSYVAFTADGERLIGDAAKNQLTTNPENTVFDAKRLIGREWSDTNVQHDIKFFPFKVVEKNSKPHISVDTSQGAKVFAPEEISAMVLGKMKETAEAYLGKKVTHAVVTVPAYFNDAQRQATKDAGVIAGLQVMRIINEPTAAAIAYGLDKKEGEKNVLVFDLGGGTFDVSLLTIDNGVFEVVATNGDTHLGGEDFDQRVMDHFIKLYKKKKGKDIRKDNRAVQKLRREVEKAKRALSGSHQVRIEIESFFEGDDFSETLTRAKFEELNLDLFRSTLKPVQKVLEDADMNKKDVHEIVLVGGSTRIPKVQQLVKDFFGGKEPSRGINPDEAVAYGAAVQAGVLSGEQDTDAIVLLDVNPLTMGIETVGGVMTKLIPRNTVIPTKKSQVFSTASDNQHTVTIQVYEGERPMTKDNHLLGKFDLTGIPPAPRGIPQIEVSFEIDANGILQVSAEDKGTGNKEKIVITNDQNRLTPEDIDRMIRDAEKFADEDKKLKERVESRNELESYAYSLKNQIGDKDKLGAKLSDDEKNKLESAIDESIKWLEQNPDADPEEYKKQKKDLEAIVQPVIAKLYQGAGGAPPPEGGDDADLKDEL
The data set is described as follows: BLI; streptavidin sensor with biotinylated ERdj6 J-domain (J) and biotinylated P15 co-immobilised; association: 5 µM Hsp70, 3 mM MgCl2, 1.5 mM ATP; dissociation in protein-free solution with Mg + ATP + ADP ([ATP]/[ADP]=2); 28°C; 50 mM HEPES-KOH pH 7.4, 100 mM KCl, 0.2 mM TCEP, 0.05% Triton X-100; one-phase decay fit. Conditions: both partners purified. (Biolayer interferometry detects binding as a change in optical thickness at a sensor tip.)

The target in data set [2] is T2, BiP (Chinese hamster, wild type, UK173) (Chinese hamster, UniProt G3I8R9 19-654).
T2 construct: BiP (Grp78), the ER Hsp70 chaperone, Chinese hamster (Cricetulus griseus), wild type; called full-length BiP in the results; also called Grp78; mammalian BiP; source: E. coli M15, purified (Ni-NTA)
T2 sequence (G3I8R9 19-654): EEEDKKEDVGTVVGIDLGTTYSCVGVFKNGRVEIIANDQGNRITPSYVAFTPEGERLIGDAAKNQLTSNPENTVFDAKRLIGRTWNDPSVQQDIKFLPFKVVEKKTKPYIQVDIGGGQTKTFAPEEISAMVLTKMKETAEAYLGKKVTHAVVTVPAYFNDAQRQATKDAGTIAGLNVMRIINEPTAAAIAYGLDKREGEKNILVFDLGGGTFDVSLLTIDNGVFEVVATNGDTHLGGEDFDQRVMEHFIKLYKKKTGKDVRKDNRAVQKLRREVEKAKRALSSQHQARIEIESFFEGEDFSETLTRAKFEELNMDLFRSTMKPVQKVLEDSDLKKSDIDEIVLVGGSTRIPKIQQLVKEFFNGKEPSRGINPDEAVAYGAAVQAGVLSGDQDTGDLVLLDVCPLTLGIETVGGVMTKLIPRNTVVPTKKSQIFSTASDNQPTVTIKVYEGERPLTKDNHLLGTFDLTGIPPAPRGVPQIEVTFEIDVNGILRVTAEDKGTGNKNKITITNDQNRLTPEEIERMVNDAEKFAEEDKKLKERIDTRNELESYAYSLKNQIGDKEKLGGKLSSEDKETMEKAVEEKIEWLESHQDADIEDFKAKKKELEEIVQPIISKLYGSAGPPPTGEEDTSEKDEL
The description is as above. The following applies: both partners purified.

The target in data set [3] is T3, human cytosolic Hsp70 (HSPA1A; UK2510; natural variant E110D) (human, UniProt P0DMV8 1-641, E110D).
T3 construct: human cytosolic Hsp70 (HSPA1A), natural variant E110D; source: E. coli BL21 T7 Express lysY/Iq, purified (Ni-NTA, Ulp1 cleavage, anion exchange); not shown: His6-Smt3, N-terminal, cleaved
T3 sequence (P0DMV8 whole entry E110D): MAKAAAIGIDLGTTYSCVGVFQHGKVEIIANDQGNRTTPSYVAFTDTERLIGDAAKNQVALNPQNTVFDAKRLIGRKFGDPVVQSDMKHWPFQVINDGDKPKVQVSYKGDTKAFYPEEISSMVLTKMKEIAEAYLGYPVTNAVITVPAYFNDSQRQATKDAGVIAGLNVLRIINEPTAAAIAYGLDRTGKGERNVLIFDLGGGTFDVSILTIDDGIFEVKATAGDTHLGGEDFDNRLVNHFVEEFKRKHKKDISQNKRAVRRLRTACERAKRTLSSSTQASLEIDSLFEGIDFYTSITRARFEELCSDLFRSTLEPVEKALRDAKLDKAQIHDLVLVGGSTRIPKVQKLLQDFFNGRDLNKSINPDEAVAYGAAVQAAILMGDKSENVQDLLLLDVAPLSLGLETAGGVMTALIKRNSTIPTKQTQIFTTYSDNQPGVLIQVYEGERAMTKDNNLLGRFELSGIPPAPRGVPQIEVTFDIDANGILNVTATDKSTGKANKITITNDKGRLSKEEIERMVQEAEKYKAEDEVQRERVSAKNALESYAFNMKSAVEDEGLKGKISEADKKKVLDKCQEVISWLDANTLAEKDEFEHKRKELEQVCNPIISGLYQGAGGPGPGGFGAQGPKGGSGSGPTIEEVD
The description is as above. The following applies: both partners purified.

In data set [4] the target is T4, human Hsc70 (HSPA8; UK2511) (human, UniProt P11142 1-646).
T4 construct: human cytosolic Hsc70 (HSPA8); source: E. coli BL21 T7 Express lysY/Iq, purified (Ni-NTA, Ulp1 cleavage, anion exchange); not shown: His6-Smt3, N-terminal, cleaved
T4 sequence (P11142 whole entry): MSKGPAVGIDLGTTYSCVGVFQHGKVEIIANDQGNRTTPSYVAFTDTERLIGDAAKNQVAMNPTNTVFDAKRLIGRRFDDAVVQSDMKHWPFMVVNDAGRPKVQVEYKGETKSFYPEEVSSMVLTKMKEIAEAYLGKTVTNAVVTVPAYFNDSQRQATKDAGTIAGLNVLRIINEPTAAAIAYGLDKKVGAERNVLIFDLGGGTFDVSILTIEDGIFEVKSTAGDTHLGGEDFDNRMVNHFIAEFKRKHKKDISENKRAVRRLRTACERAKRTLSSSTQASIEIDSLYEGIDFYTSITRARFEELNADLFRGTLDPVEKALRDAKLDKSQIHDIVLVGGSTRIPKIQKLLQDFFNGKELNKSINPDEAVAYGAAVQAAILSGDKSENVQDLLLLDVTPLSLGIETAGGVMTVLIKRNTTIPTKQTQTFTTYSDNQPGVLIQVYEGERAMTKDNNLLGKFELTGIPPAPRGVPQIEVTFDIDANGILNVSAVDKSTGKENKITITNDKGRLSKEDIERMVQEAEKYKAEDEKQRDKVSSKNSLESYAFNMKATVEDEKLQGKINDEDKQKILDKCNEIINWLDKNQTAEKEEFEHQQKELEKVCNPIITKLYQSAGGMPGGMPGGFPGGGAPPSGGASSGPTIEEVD
Described as above. Conditions: both partners purified.

Data set [5] concerns the target T5, DnaK from Escherichia coli (UK2243) (Escherichia coli, UniProt P0A6Y8 1-638).
T5 construct: DnaK, the Hsp70 of Escherichia coli; also called bacterial DnaK; source: E. coli BL21 T7 Express lysY/Iq, purified (Ni-NTA, Ulp1 cleavage, anion exchange, second Ni-NTA); not shown: His6-Smt3, N-terminal, cleaved
The data set is described as follows: BLI; streptavidin sensor with biotinylated J-domain of E. coli DnaJ (residues 1-72) and biotinylated P15 co-immobilised; association: 5 µM DnaK, 3 mM MgCl2, 1.5 mM ATP; dissociation in protein-free solution with Mg + ATP + ADP ([ATP]/[ADP]=2); 28°C; 50 mM HEPES-KOH pH 7.4, 100 mM KCl, 0.2 mM TCEP, 0.05% Triton X-100; one-phase decay fit. Conditions: both partners purified.

Data set [6] addresses T2, BiP (Chinese hamster, wild type, UK173). Kind of data set: BLI; as a7, but dissociation with Mg + Ca + ATP + ADP ([MgCl2]/[CaCl2]=3; [ATP]/[ADP]=2). Conditions: both partners purified.
The target in data set [7] is T5, DnaK from Escherichia coli (UK2243). Kind of data set: BLI; as a14, but dissociation with Mg + Ca + ATP + ADP. The following applies: both partners purified.
The target in data set [8] is T2, BiP (Chinese hamster, wild type, UK173). Kind of data set: BLI; streptavidin sensor with biotinylated ERdj6 J-domain (J) and biotinylated P15 co-immobilised; association: 5 µM Hsp70, 3 mM MgCl2, 1.5 mM ATP; dissociation in protein-free solution with Mg + ATP + ADP ([ATP]/[ADP]=2); 28°C; 50 mM HEPES-KOH pH 7.4, 100 mM KCl, 0.2 mM TCEP, 0.05% Triton X-100; one-phase decay fit. The following applies: both partners purified. This is another data set of the same source.

Data set [9] shares this target. Kind of data set: BLI; as a1, association with Mg + ATP; first dissociation step with Mg + ADP, then second dissociation step (the one fitted) with Mg + ATP. The following applies: both partners purified.
For data set [10] the target is unchanged. The data set is described as follows: BLI; as a7, dissociation with Mg + ATP + ADP and Grp170 present in the dissociation step. The following applies: both partners purified.
Data set [11] has the same target. The data set is described as follows: BLI; as a1, association with Mg + ATP; dissociation with Mg + ADP. The following applies: both partners purified.
The target is the same in data set [12]. The data set is described as follows: BLI; as a1, but the non-functional H422Q J-domain (J^QPD) co-immobilised with P15; association with Mg + ATP; dissociation with Mg + ATP. The following applies: both partners purified.
The target is the same in data set [13]. Kind of data set: BLI; as a1, association with Mg + ATP; dissociation with Ca + ATP (Ca2+ the only divalent cation). Conditions: both partners purified.
Data set [14] has the same target. Kind of data set: BLI; as a1, but association with Mg + Ca + ATP ([MgCl2]/[CaCl2]=3); dissociation with Mg + ATP. The following applies: both partners purified.
Data set [15] shares this target. The data set is described as follows: BLI; streptavidin sensor with biotinylated ERdj6 J-domain (J) and biotinylated P15 co-immobilised; association: 5 µM BiP, MgCl2 + ATP; dissociation in protein-free solution with Mg + ATP; 28°C; 50 mM HEPES-KOH pH 7.4, 100 mM KCl, 0.2 mM TCEP, 0.05% Triton X-100; one-phase decay fit. The following applies: both partners purified.

The target is the same in data set [16]. Kind of data set: BLI; as a7, but dissociation with Mg + Ca + ATP + ADP ([MgCl2]/[CaCl2]=3; [ATP]/[ADP]=2). The following applies: both partners purified. This is another data set of the same source.
Data set [17] has as its target T1, BiP from Drosophila melanogaster …. Described as above. The following applies: both partners purified.
Data set [18] addresses T2, BiP (Chinese hamster, wild type, UK173). The data set is described as above. The following applies: both partners purified. This is another data set of the same source.
Data set [19] deals with T3, human cytosolic Hsp70 (HSPA1A; UK2510; …). The data set is described as above. The following applies: both partners purified.
Data set [20] addresses T4, human Hsc70 (HSPA8; UK2511). Described as above. The following applies: both partners purified.
The target of data set [21] is T2, BiP (Chinese hamster, wild type, UK173). The data set is described as follows: BLI; as a1, association with Mg + ATP; first dissociation step with Ca + ADP, then second dissociation step (the one fitted) with Mg + ATP. The following applies: both partners purified.
The target is the same in data set [22]. Kind of data set: BLI; as a8, dissociation with Mg + Ca + ATP + ADP and Grp170 present in the dissociation step. The following applies: both partners purified.
For data set [23] the target is unchanged. The data set is described as follows: BLI; as a1, but the non-functional H422Q J-domain (J^QPD) co-immobilised with P15; association with Mg + ATP; dissociation with Mg + ATP. Conditions: both partners purified. This is another data set of the same source.
For data set [24] the target is unchanged. Kind of data set: BLI; streptavidin sensor with biotinylated ERdj6 J-domain (J) and biotinylated P15 co-immobilised; association: 5 µM Hsp70, 3 mM MgCl2, 1.5 mM ATP; dissociation in protein-free solution with Mg + ATP + ADP ([ATP]/[ADP]=2); 28°C; 50 mM HEPES-KOH pH 7.4, 100 mM KCl, 0.2 mM TCEP, 0.05% Triton X-100; one-phase decay fit. Conditions: both partners purified. This is another data set of the same source.

The target is the same in data set [25]. Kind of data set: BLI; as a1, association with Mg + ATP; dissociation with Mg + Ca + ATP ([MgCl2]/[CaCl2]=3). Conditions: both partners purified.
For data set [26] the target is unchanged. The data set is described as follows: BLI; as a1, association with Mg + ATP; dissociation (step 1) with Ca + ADP. Conditions: both partners purified.
Data set [27] deals with the molecule itself. Kind of data set: crystal structure; BiP^T229A-V461F (28-549) at 150 µM with equimolar FICD^L258D-H363A and 175 µM ATP (FICD excluded from the crystals); apo: 20% PEG3350, 0.1 M Bis-Tris Propane pH 7.5, 0.2 M Na3Citrate; ADP-bound: 20% PEG3350, 0.2 M K3Citrate.

T5 sequence (P0A6Y8 whole entry): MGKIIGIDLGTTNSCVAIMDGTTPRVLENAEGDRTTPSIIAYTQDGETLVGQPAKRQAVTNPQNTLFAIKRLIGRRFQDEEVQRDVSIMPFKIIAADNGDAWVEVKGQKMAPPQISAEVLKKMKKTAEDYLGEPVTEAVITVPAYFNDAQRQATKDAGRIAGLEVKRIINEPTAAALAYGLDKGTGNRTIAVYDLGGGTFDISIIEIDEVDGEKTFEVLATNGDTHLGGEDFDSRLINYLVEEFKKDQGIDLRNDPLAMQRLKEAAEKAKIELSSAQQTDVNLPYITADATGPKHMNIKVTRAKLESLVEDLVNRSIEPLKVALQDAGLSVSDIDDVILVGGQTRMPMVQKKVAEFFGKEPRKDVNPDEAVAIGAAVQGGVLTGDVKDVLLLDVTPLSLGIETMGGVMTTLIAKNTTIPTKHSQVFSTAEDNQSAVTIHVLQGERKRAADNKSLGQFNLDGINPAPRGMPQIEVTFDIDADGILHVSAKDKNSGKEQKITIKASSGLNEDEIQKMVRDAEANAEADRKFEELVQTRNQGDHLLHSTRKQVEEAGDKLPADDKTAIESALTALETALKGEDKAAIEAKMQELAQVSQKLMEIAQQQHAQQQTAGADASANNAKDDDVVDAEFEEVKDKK

B1: P15 BiP substrate peptide (peptide)
peptide: ALLLSAPRRGAGKK(Biotin)
notes: substrate peptide P15 (Misselwitz et al., 1998); Held on streptavidin BLI sensors together with a biotinylated J-domain (ERdj6 residues 390-455, wild type or H422Q; for DnaK the J-domain of DnaJ, residues 1-72); source: synthetic peptide (custom synthesis, GenScript)
In the case of B1, the dissociation rate constant (koff) in data set [1] is 0.00811 s⁻¹ and 0.00832 s⁻¹ and 0.00795 s⁻¹ and 0.00806 s⁻¹; in data set [2], 0.00441 s⁻¹ and 0.00438 s⁻¹ and 0.00434 s⁻¹ and 0.00453 s⁻¹; in [3] it was 0.00203 s⁻¹ and 0.00225 s⁻¹ and 0.00198 s⁻¹ and 0.00185 s⁻¹; in data set [4], 0.00395 s⁻¹ and 0.00411 s⁻¹ and 0.00394 s⁻¹ and 0.0038 s⁻¹; in [5], 0.00693 s⁻¹ and 0.00776 s⁻¹ and 0.00549 s⁻¹ and 0.00673 s⁻¹; in data set [6], 0.00239 s⁻¹ and 0.00247 s⁻¹ and 0.00254 s⁻¹. Besides, the dissociation rate constant (koff) in data set [6] (mean) is 0.00247 s⁻¹; in [7], 0.00636 s⁻¹ and 0.00686 s⁻¹ and 0.00525 s⁻¹ and 0.00615 s⁻¹; in data set [8], 0.00421 s⁻¹ and 0.00438 s⁻¹ and 0.00441 s⁻¹; in data set [8] (mean), 0.00433 s⁻¹; in data set [9] it was 0.00684 s⁻¹ and 0.00682 s⁻¹ and 0.00672 s⁻¹; in data set [9] (mean) it was 0.00679 s⁻¹. For the same molecule, the off-rate (koff) in data set [10] is 0.0103 s⁻¹ and 0.00955 s⁻¹ and 0.00937 s⁻¹; in data set [10] (mean), 0.00974 s⁻¹; in data set [11] it was 0.00145 s⁻¹ (2×) and 0.00148 s⁻¹; in [11] (mean) it was 0.00146 s⁻¹; in [12], 0.00101 s⁻¹ and 0.000958 s⁻¹ and 0.00117 s⁻¹; in data set [12] (mean), 0.00105 s⁻¹. The koff in data set [13] was 0.0074 s⁻¹ and 0.00639 s⁻¹ and 0.00848 s⁻¹; in data set [13] (mean) it was 0.00742 s⁻¹; in [14], 0.00546 s⁻¹ and 0.00506 s⁻¹ and 0.00591 s⁻¹; in [14] (mean) it was 0.00547 s⁻¹; in data set [15] it was 0.00583 s⁻¹ and 0.00632 s⁻¹ and 0.00607 s⁻¹; in data set [15] (mean) it was 0.00607 s⁻¹. In addition, the koff in data set [16] was 0.0025 s⁻¹ and 0.0024 s⁻¹ and 0.00243 s⁻¹; in data set [16] (mean), 0.00244 s⁻¹; in data set [17], 0.00384 s⁻¹ and 0.00414 s⁻¹ and 0.00359 s⁻¹ and 0.0038 s⁻¹; in [18], 0.0025 s⁻¹ and 0.00254 s⁻¹ and 0.00241 s⁻¹ and 0.00255 s⁻¹; in data set [19], 0.00171 s⁻¹ and 0.00178 s⁻¹ and 0.00164 s⁻¹; in data set [20] it was 0.00336 s⁻¹ and 0.00333 s⁻¹ and 0.00344 s⁻¹ and 0.00318 s⁻¹. For the same molecule, the dissociation rate constant (koff) was 0.00294 s⁻¹ and 0.00337 s⁻¹ and 0.00333 s⁻¹ in [21]; 0.00321 s⁻¹ in [21] (mean); 0.00682 s⁻¹ and 0.00595 s⁻¹ and 0.00602 s⁻¹ in data set [22]; 0.00626 s⁻¹ in [22] (mean); 0.00203 s⁻¹ and 0.000861 s⁻¹ and 0.000902 s⁻¹ in [23]; 0.00127 s⁻¹ in data set [23] (mean). Besides, the koff in [24] was 0.00434 s⁻¹ (2×) and 0.00424 s⁻¹; in [24] (mean) it was 0.00431 s⁻¹; in data set [25] it was 0.00575 s⁻¹ and 0.00678 s⁻¹ and 0.00573 s⁻¹; in data set [25] (mean) it was 0.00609 s⁻¹; in [26] it was 0.00121 s⁻¹ and 0.0012 s⁻¹ and 0.00122 s⁻¹; in data set [26] (mean) it was 0.00121 s⁻¹.

B2: Chinese hamster BiP^T229A-V461F (residues 28–549), lid-truncated (domain or fragment)
chain: not shown
notes: also called apo BiP oligomer; ADP BiP oligomer; source: E. coli M15, purified (as in Perera et al., 2019; anion exchange, gel filtration)
With B2, the binding result in data set [27] was “binds”.

As usually defined, the koff is the first-order rate constant of dissociation.
